Test results: PMC8668187
Where “and” joins values, the source holds several entries; their conditions need not be identical. Equal values may be shown once.

Tests used:
[1] = molecular target: CsGSIb EVK138DIQ mutant (Camellia sinensis)
[2] = molecular target: CsGSIb EVK138DIQ mutant (Camellia sinensis); test: SEC-MALS; Superdex 200 10/300 GL with MALS and QELS; 50 mM KPi pH 7.0, 100 mM NaCl, 1 mM β-mercaptoethanol, 0.05 % NaN3; room temperature (~23 °C); self-association of the GS
[3] = molecular target: CsGSIb EVK138DIQ mutant (Camellia sinensis); test: AUC; sedimentation velocity, 0.1/0.25/0.5 mg/mL, 50 mM Tris-HCl pH 7.4, 100 mM NaCl, 1.5 mM β-mercaptoethanol, rotor at 20 °C (results: room temperature); global fit; decamer to two pentamers
[4] = molecular target: CsGSIb I143L mutant (Camellia sinensis)
[5] = molecular target: CsGSIb I143L mutant (Camellia sinensis); test: SEC-MALS; Superdex 200 10/300 GL with MALS and QELS; 50 mM KPi pH 7.0, 100 mM NaCl, 1 mM β-mercaptoethanol, 0.05 % NaN3; room temperature (~23 °C); self-association of the GS
[6] = molecular target: CsGSIb I143L mutant (Camellia sinensis); test: AUC; sedimentation velocity, 0.1/0.25/0.5 mg/mL, 50 mM Tris-HCl pH 7.4, 100 mM NaCl, 1.5 mM β-mercaptoethanol, rotor at 20 °C (results: room temperature); global fit; decamer to two pentamers
[7] = molecular target: glutamine synthetase CsGSIb from Camellia sinensis, wild type (Camellia sinensis)
[8] = molecular target: glutamine synthetase CsGSIb from Camellia sinensis, wild type (Camellia sinensis); test: SEC-MALS; Superdex 200 10/300 GL with MALS and QELS; 50 mM KPi pH 7.0, 100 mM NaCl, 1 mM β-mercaptoethanol, 0.05 % NaN3; room temperature (~23 °C); self-association of the GS
[9] = molecular target: glutamine synthetase CsGSIb from Camellia sinensis, wild type (Camellia sinensis); test: AUC; sedimentation velocity, 0.1/0.25/0.5 mg/mL, 50 mM Tris-HCl pH 7.4, 100 mM NaCl, 1.5 mM β-mercaptoethanol, rotor at 20 °C (results: room temperature); global fit; decamer to two pentamers
[10] = molecular target: glutamine synthetase GmGSβ2 from Glycine max (Glycine max); test: SEC-MALS; Superdex 200 10/300 GL with MALS and QELS; 50 mM KPi pH 7.0, 100 mM NaCl, 1 mM β-mercaptoethanol, 0.05 % NaN3; room temperature (~23 °C); self-association of the GS

Substance: CsGSIb EVK138DIQ mutant (enzyme)
- glutamine synthetase activity, increase over wild-type CsGSIb (1 μM monomer enzyme, 30 min, 37 °C) [1]: 64 fold
- fraction decameric [2]: 72%
- Kd [3]: 40 nM

Substance: CsGSIb I143L mutant (enzyme)
- glutamine synthetase activity, increase over wild-type CsGSIb (1 μM monomer enzyme, 30 min, 37 °C) [4]: 76 fold
- fraction decameric [5]: > 95%
- Kd [6]: 10 nM

Substance: glutamine synthetase CsGSIb from Camellia sinensis, wild type (enzyme)
- glutamine synthetase activity on raising the CsGSIb concentration from 1 μM to 5 μM (monomer) [7]: 30 fold
- fraction decameric [8]: 18%
- fraction pentameric [8]: 82%
- stoichiometry N [8]: 5 and 10
- Kd [9]: 270 nM
- stoichiometry N [9]: 10 and 5

Substance: glutamine synthetase GmGSβ2 from Glycine max (enzyme)
- stoichiometry N [10]: 10
